Measurements published in the supplement of paper PMC10567573.

B1: ZBED3 (parent)
chain: GPGFHAGTSALWRHLRSAHRRELE
B2: TRAF3IP2 (parent)
chain: KEHVPTWLQNTHVYSWPKNKKNIL

Variants of: B1
Test: protein stability index of a GFP-peptide fusion (GPS, HEK-293T) (PSI 1-6); higher = more stable
Conditions: c terminus: a fixed tail appended
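Note: lentivirally expressed fusions sorted by FACS into six bins by GFP to DsRed ratio, PSI derived from sequencing read proportions per bin multiplied by bin number.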

Variant | protein stability index
L11M | 2.64
L11I | 2.32
E24Q | 2.51
E24A | 2.02
E24R | 2.96
E24S | 1.97
W12M | 1.84
G7V | 2.19
G7K | 2.01
G7P | 2.23
G7N | 2.69
S9E | 3.25
S9V | 1.92
H19Q | 2.2
H19W | 2.14
H19S | 2.29
H19E | 2.21
P2L | 2.5
P2Y | 2.54
P2D | 3.38
L23Q | 2.13
L23W | 1.88

Variant | protein stability index
L23Y | 2.42
L23P | 1.98
L23R | 2.91
T8L | 2.52
T8Y | 2.37
T8C | 2.51
T8G | 2.26
A10N | 2.67
A10G | 2.67
A10C | 2.32
G3N | 3.56
G3P | 3.38
G3H | 3.25
G3I | 2.5
G3V | 3.1
G3Y | 3.36
H5I | 2.15
F4V | 3
F4H | 3.16
F4C | 3.19
L15M | 2.7
L15T | 2.05

Variant | protein stability index
A6N | 2
A6R | 3.08
R13T | 1.99
R13P | 2.12
R13C | 1.47
E22Q | 1.72
E22S | 2.17
R21W | 2.07
R21L | 1.77
G1K | 3.07
G1Y | 2.1
S17V | 1.94
S17W | 3.17
R20V | 2.06
R16S | 2.21
R16P | 2.33
R16E | 2.41
R16H | 2.17
A18Y | 1.85
A18H | 2.04

Variants of: B2
Test: as above
Conditions: c terminus: a fixed tail appended

Variant | protein stability index
E2L | 1.67
E2I | 1.58
E2T | 2.33
E2Y | 2.07
E2C | 1.54
E2A | 1.94
E2K | 2.13
E2W | 1.57
E2V | 2.15
E2F | 1.7
E2N | 2.14
E2D | 2.47
E2Q | 2.15
E2M | 2.5
E2P | 2.25
E2S | 2.53
E2H | 2.08
E2G | 1.93
E2R | 3.4
V4C | 1.87
V4S | 2.77
V4F | 2.07
V4E | 3.23
V4G | 2.81
V4M | 2.35
V4Q | 3.54

Variant | protein stability index
V4I | 1.74
V4W | 1.93
V4R | 2.69
V4P | 2.85
V4D | 3.29
V4T | 3.87
V4H | 2.25
V4Y | 2.27
V4K | 2.43
V4A | 2.39
V4N | 3.44
V4L | 3.21
P5E | 2.58
P5R | 1.95
P5W | 2.76
P5M | 2.27
P5K | 1.9
P5Q | 1.45
P5D | 3.08
P5N | 2.26
P5L | 1.73
P5A | 2.66
P5I | 1
P5Y | 1.94
P5G | 2.38
P5H | 2.06

Variant | protein stability index
P5V | 2.24
P5T | 2.14
P5S | 2.47
P5C | 1.96
H3K | 2.83
H3Q | 2.62
H3V | 2.69
H3F | 2.16
H3T | 2.72
H3G | 3.19
H3E | 2.51
H3S | 2.58
H3R | 2.21
H3D | 2.85
H3M | 2.46
H3Y | 2.03
H3I | 2.53
H3P | 3.67
H3W | 2.02
H3N | 3.17
H3C | 2.42
H3L | 2.6
H3A | 2.54
T6F | 1.93
T6A | 2.49
T6C | 1.81

Variant | protein stability index
T6H | 2.29
T6I | 2.21
T6G | 2.81
T6E | 2.59
T6D | 2.71
T6K | 2.73
K1V | 2.78
K1Y | 1.93
K1G | 3.22
K1W | 1.98
K1D | 2.93
K1M | 2.33
K1A | 3.11
K1F | 1.69
K1E | 3.06
K1C | 2.26
K1L | 2.56
K1T | 2.71
K1R | 2.42
K1P | 1.97
K1N | 3.12
K1S | 2.76
K1Q | 2.67
K1I | 1.94
K1H | 2.58
